Values of other authors as cited in patent US20230295339A1, “METHOD FOR TREATING A GD2-POSITIVE CANCER” (EUSA PHARMA (UK) LIMITED, priority 2020, published 2023).

B1: humanized 3F8: murine anti-GD2 antibody 3F8 humanized as naxitamab (antibody, chains of the INN, looked up, V domains shown)
VH: QVQLVESGPGVVQPGRSLRISCAVSGFSVTNYGVHWVRQPPGKGLEWLGVIWAGGITNYNSAFMSRLTISKDNSKNTVYLQMNSLRAEDTAMYYCASRGGHYGYALDYWGQGTLVTVSS
VL: EIVMTQTPATLSVSAGERVTITCKASQSVSNDVTWYQQKPGQAPRLLIYSASNRYSGVPARFSGSGYGTEFTFTISSVQSEDFAVYFCQQDYSSFGQGTKLEIK
B2: dinutuximab beta: chimeric (murine/human) anti-GD2 IgG1 monoclonal antibody produced in CHO cells (antibody, chains of the INN, looked up, V domains shown)
VH: EVQLLQSGPELEKPGASVMISCKASGSSFTGYNMNWVRQNIGKSLEWIGAIDPYYGGTSYNQKFKGRATLTVDKSSSTAYMHLKSLTSEDSAVYYCVSGMEYWGQGTSVTVSS
VL: EIVMTQSPATLSVSPGERATLSCRSSQSLVHRNGNTYLHWYLQKPGQSPKLLIHKVSNRFSGVPDRFSGSGSGTDFTLKISRVEAEDLGVYFCSQSTHVPPLTFGAGTKLELK
B3: Unituxin: chimeric anti-GD2 antibody ch14.18 produced in SP2/0 murine hybridoma cells (antibody, chains of the INN, looked up, V domains shown)
VH: B2 VH
VL: B2 VL

Assays:
[1] = for Kd: read-out: apparent kD for binding to GD2

Row | Molecule | binding preference for GD2 versus the related glycan structure GQ2 [1] | binding preference for GD2 versus the related glycan structure GT2 [1] | Kd [1] | tolerability of cumulative dose in maintenance treatment (10 days, 10 mg/m^2/day, 35-day intervals, 5 cycles, cumulative 500 mg/m^2 in 175 days) | toxicity in subsequent cycles (in vivo)
1 | B1 | 200 | 1500 | 7.7 nM | – | –
2 | B2 | – | – | – | feasible and well-tolerated | decrease of dinutuximab beta toxicity in subsequent cycles
3 | B3 | 1000 | > 5000 | 60 nM | – | –
